Numbering of substitutions follows the chain as printed. Names may count otherwise.
B1: PrfA L140F (natural protein)
chain: MNAQAEEFKKYLETNGIKPKQFHKKELIFNQWDPQEYCIFLYDGITKLTSISENGTIMNLQYYKGAFVIMSGFIDTETSVGYYNLEVISEQATAYVIKINELKELLSKNLTHFFYVFQTLQKQVSYSLAKFNDFSINGKFGSICGQLLILTYVYGKETPDGIKITLDNLTMQELGYSSGIAHSSAVSRIISKLKQEKVIVYKNSCFYVQNLDYLKRYAPKLDEWFYLACPATWGKLN
B2: wild-type PrfA (positive regulatory factor A) (natural protein)
chain: B1 chain with F140L
B3: PrfA Y63C (natural protein)
chain: B1 chain with Y63C, F140L

Molecular target: the molecule itself
Assay: cross-linking

Protein | binding result | stoichiometry N
B1 | binds | –
B2 | – | 2
B3 | binds | –

— article PMC2646509 (Microbiology (Reading, England), 2008)
